The numbers were not newly measured in article PMC130215, which cites them from elsewhere.

The target of this data set is LIR-1 (ILT2) (Homo sapiens) (UniProt Q8NHL6).
Sequence of UniProt Q8NHL6 (Q8NHL6 24-461): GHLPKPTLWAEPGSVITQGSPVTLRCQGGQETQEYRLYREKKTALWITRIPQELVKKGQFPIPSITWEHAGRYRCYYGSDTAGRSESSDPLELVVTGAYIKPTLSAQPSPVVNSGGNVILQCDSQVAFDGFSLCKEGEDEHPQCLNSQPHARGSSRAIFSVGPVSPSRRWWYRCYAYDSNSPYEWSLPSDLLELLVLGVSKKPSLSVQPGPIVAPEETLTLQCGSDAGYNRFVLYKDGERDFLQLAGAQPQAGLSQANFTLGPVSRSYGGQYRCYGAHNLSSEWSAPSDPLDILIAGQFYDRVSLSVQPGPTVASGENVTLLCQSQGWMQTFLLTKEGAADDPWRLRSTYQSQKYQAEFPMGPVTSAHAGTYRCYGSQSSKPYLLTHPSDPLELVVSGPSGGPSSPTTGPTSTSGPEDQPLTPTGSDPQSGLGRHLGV

For UL18 (from UniProt P08560), the dissociation constant Kd was 2 nM.
